Here are results for 1 protein from article PMC8262886, “The Breadth and Molecular Basis of Hcp-Driven Type VI Secretion System Effector Delivery” (mBio, 2021).

The data set concerns the molecule itself. The data set is described as follows: negative-stain electron microscopy; purified Hcp1-His diluted to 0.01 mg/ml, 2% uranyl acetate, 2D class averages with top and side views.

B1: Hcp1-His (natural protein)
chain: MAVDMFIKIGDVKGESKDKTHAEEIDVLAWSWGMSQSGSMHMGGGGGAGKVNVQDLSFTKYIDKSTPNLMMACSSGKHYPQAKLTIRKAGGENQVEYLIITLKEVLVSSVSTGGSGGEDRLTENVTLNFAQVQVDYQPQKADGAKDGGPVKYGWNIRQNVQA
notes: Hcp1 of Pseudomonas aeruginosa, the Hcp of the H1-T6SS; also called His-tagged version of Hcp1; source: E. coli BL21(λDE3), from pACYCDuet-1; coexpressed with an effector, in lysate, copurified (Ni-NTA, SEC); also purified alone (Ni-NTA, SEC); not shown: His, C-terminal, kept
For B1, the binding result is given as “binds”.
